Assay results from paper PMC13543948, “SNX-BAR proteins 5 and 6 are required for NCOA7-AS antiviral activity against influenza A virus” (The Journal of Biological Chemistry, 2026).
Where no end group is shown, it is not given here.

B1: MBP-tagged PX domain of SNX5 (MBP-PX-SNX5) (domain or fragment, human, UniProt Q9Y5X3 25-172, looked up)
chain: LNVDPSLQIDIPDALSERDKVKFTVHTKTTLPTFQSPEFSVTRQHEDFVWLHDTLIETTDYAGLIIPPAPTKPDFDGPREKMQKLGEGEGSMTKEEFAKMKQELEAEYLAVFKKTVSSHEVFLQRLSSHPVLSKDRNFHVFLEYDQDL
notes: Phox homology (PX) domain of human sorting nexin 5; Cloned in pMAL-p4X; also called PX-SNX5-WT; source: E. coli BL21 (DE3), purified (amylose resin, SEC)

How the values were obtained:
Conditions in all cases: both partners purified
[1] = biological target: T1, GST-tagged NCOA7-AS (NCOA7-AS-WT-GST) (human, UniProt Q8NI08-5 1-219); test: pull-down; GST-tagged proteins (14-35 μg) on glutathione agarose beads, 85 μg MBP-tagged protein, 2 h at 4 °C; 50 mM Tris-HCl pH 8, 600 mM NaCl, 5 mM β-mercaptoethanol, 10% glycerol; Western blot (GST, MBP)
T1 construct: numbers count on: NCOA7-AS; Modified pET-30: MCS, TEV cleavage site, GST, His6; no cleavage is described for the GST-tagged proteins; also called GST-tagged-NCOA7-AS-WT; source: E. coli BL21 (DE3), purified (Ni-NTA, SEC); not shown: GST, C-terminal, kept
T1 sequence (looked up): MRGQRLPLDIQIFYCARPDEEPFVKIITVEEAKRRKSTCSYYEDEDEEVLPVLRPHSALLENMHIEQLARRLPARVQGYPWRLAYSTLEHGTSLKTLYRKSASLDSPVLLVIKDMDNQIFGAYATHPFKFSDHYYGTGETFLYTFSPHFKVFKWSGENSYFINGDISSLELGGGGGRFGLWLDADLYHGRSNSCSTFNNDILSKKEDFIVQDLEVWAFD

[2] = biological target: T2, GST-tagged NCOA7-AS-Y14F (human, UniProt Q8NI08-5 1-219, Y14F); test: as above
T2 construct: source: E. coli BL21 (DE3), purified (Ni-NTA, SEC); not shown: GST, C-terminal, kept
T2 sequence (looked up): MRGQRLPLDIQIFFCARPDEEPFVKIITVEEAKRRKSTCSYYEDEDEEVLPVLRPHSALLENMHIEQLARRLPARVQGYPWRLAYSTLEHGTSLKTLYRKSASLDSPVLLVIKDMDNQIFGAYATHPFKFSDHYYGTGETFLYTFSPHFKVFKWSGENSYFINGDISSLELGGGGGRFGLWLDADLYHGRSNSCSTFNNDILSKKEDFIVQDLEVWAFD

[3] = biological target: T3, MBP-tagged PX domain of SNX5 with F136A (MBP-PX-SNX5-F136A) (human, UniProt Q9Y5X3 25-172, F136A); test: microfluidic diffusional sizing; 57 nM FITC peptide tracked, MBP-PX-SNX5 proteins titrated 0.38-250 μM in PBS-10% glycerol; Fluidity One-W; hydrodynamic radius; one-site specific binding fit; apparent Kd
T3 construct: Phox homology (PX) domain of human sorting nexin 5; pMAL-PX-SNX5-F136A by site-directed mutagenesis; also called F136A mutant; source: E. coli BL21 (DE3), purified (amylose resin, SEC)
T3 sequence (looked up): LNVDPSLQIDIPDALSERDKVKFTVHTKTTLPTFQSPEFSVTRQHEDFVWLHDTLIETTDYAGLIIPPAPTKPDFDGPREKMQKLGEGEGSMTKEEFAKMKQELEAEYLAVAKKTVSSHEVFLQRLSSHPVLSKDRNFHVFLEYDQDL

[4] = biological target: B1; test: as above
[5] = biological target: B1; test: pull-down; GST-tagged proteins (14-35 μg) on glutathione agarose beads, 85 μg MBP-tagged protein, 2 h at 4 °C; 50 mM Tris-HCl pH 8, 600 mM NaCl, 5 mM β-mercaptoethanol, 10% glycerol; Western blot (GST, MBP)

B1
binding result [1]: binds | binding result [2]: binds

B2: FITC conjugated NCOA7-AS peptide (NCOA7-AS-NTD-FITC) (peptide)
peptide: RLPLDIQIFYCARPDEEPFVKIITVEEAKRR
modifications: also: FITC conjugated, position not given here
notes: numbers count on: NCOA7-AS; Printed as NH2-...-COOH; Limits worked out from Tyr14, Gln11, Glu21 and Val24 as numbered in the structure; also called fluorescently labeled NCOA7-AS-NTD
Kd [3]: 13.4 µM | Kd [4]: 1.4 µM

B3: GST-tagged NCOA7-AS N-terminal domain (NCOA7-AS-NTD-GST) (domain or fragment, human, UniProt Q8NI08-5 1-53, looked up)
chain: MRGQRLPLDIQIFYCARPDEEPFVKIITVEEAKRRKSTCSYYEDEDEEVLPVL
notes: numbers count on: NCOA7-AS; source: E. coli BL21 (DE3), purified (Ni-NTA, SEC); not shown: GST, C-terminal, kept
binding result [5]: binds
